T1: Spt7 with a C-terminal TAP tag (S. cerevisiae, UniProt P35177 1-1332)
T1 construct: Spt7, SAGA core subunit, S. cerevisiae; expressed at endogenous level; SAGA was captured on IgG Sepharose by the TAP tag and released from the beads by TEV cleavage of the tag; also called Spt7-TAP; not shown: TAP, C-terminal, kept
T1 sequence (looked up): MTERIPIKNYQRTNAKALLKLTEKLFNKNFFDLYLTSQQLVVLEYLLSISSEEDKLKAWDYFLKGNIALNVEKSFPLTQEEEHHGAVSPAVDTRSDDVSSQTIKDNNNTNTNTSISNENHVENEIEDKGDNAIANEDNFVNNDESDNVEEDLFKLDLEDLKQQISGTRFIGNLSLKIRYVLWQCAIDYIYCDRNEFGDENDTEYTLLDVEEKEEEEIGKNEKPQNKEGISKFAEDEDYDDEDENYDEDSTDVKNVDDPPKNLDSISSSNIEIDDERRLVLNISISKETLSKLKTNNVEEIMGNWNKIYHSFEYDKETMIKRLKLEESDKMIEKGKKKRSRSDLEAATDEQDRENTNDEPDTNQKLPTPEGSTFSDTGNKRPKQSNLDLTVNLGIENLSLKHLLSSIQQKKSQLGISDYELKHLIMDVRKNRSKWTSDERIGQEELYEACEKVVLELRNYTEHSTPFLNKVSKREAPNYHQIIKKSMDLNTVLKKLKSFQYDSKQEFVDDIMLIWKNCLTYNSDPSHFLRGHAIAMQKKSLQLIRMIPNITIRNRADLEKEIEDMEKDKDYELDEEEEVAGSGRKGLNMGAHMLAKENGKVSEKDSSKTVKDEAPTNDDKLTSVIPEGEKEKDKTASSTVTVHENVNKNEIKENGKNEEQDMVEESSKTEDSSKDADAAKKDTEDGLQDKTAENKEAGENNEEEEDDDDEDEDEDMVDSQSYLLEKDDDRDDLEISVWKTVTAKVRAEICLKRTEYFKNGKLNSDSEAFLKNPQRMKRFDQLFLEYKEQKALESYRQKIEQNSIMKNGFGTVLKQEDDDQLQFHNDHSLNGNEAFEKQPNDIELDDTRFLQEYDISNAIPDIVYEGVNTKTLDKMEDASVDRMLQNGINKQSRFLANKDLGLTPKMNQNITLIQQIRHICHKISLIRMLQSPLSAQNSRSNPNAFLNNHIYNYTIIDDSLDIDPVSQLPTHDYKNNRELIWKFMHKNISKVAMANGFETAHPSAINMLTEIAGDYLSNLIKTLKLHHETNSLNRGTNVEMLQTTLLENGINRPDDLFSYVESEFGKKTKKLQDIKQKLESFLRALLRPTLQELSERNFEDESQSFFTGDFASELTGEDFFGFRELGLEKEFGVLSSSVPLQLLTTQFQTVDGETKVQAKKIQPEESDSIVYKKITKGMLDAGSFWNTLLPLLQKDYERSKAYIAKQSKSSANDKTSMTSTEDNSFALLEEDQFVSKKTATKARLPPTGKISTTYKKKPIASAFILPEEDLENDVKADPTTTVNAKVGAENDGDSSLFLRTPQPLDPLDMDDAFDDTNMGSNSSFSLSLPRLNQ


target: T1, Spt7 with a C-terminal TAP tag; assay: affinity purification with mass spectrometry; SAGA purified by Spt7-TAP from yeast with the Ada2 SWIRM domain deleted (YCW20): IgG Sepharose, TEV cleavage, HiTrap Q; LC-MS/MS, total spectrum counts normalized to Spt7; conditions: partners not purified

fold depletion against wild type SAGA [fold] | Binder
~7 | Sgf29 (endogenous) (natural protein, S. cerevisiae (endogenous in yeast), UniProt P25554 1-259, looked up, Sgf29, SAGA HAT module subunit, S. cerevisiae; source: endogenous, S. cerevisiae lysate / whole cell extract) MDGYWDVVVSSLQDIYNANEVIPFDDELQTKKLNFLNMSKDQLQLHLNTFQEHMENVNRVHRILDNVRSNLSLMLNQSREEKSEENTEDAEEGEGTRMALSQGKKAVGKVGRSYWTSEYNPNAPILVGSEVAYKPRRGSADGEWIQCEVLKVVADGTRFEVRDPEPDELGNSGKVYKCNRKELLLIPPGFPTKNYPPGTKVLARYPETTTFYPAIVIGTKRDGTCRLRFDGEEEVDKETEVTRRLVLPSPTALANLARK
~7 | Ada3 (endogenous) (natural protein, S. cerevisiae (endogenous in yeast), UniProt P32494 1-702, looked up, Ada3, SAGA HAT module subunit, S. cerevisiae; source: endogenous, S. cerevisiae lysate / whole cell extract) MPRHGRRGKLPKGEKLPKKEGGDNTPSKLLSSMLKTLDLTFERDIGMLNGKSVRSIPNKKTLLELQSQLDSLNEILGTIARGDQETIEALRKIRDSKNEKQANDEKQETSNADGQHESSTATEETNIIDKGVQSPPKPPPSNEISGTIENDVESIKQAADNMAKEEINEDKDLQVHRDQPREKRPFDSETENRATENENTQRPDNKKQKIDVDKMENDPTVKNPKSEFVVSQTLPRAAAALGLFNEEGLESTGEDFLKKKYNVASYPTNDLKDLLPGELPDMDFSHPKPTNQIQFNTFLAFVENFFKDLSDDNLKFLKMKYIIPDSLQFDKTYDPEVNPFIIPKLGPLYTDVWFKDENDKNSAYKKPSPYSNDASTILPKKSANELDDNALESGSISCGPLLSRLLSAVLKDDNDKSELQSSKIIRDGGLPRTGGEDDIQSFRNNNNDTVDMTLSQENGPSVQTPDNDIDEEASFQAKLAENKGSNGGTTSTLPQQIGWITNGINLDYPTFEERLKRELKYVGIYMNLPKDENNPNSDDPDWVTGREDDEISAELRELQGTLKQVTKKNQKRKAQLIPLVERQLAWQEYSSILEDLDKQIDQAYVKRIRVPKKRKKHHTAASNNVNTGTTSQIAQQKAANSSLKSLLDKRQRWINKIGPLFDKPEIMKRIPNESVFKDMDQEEDEDEADVFAQNTNKDVELN
~7 | Ada2 ΔSWIRM (Δ residues 349–434, chromosomal deletion) (natural protein, S. cerevisiae, UniProt Q02336 1-434, looked up, Ada2, S. cerevisiae, without the SWIRM domain (residues 349–434 substituted with KanMX in the gene); source: S. cerevisiae strain YCW20, SWIRM domain deleted by homologous recombination, in lysate) MSNKFHCDVCSADCTNRVRVSCAICPEYDLCVPCFSQGSYTGKHRPYHDYRIIETNSYPILCPDWGADEELQLIKGAQTLGLGNWQDIADHIGSRGKEEVKEHYLKYYLESKYYPIPDITQNIHVPQDEFLEQRRHRIESFRERPLEPPRKPMASVPSCHEVQGFMPGRLEFETEFENEAEGPVKDMVFEPDDQPLDIELKFAILDIYNSRLTTRAEKKRLLFENHLMDYRKLQAIDKKRSKEAKELYNRIKPFARVMTAQDFEEFSKDILEELHCRARIQQLQEWRSNGLTTLEAGLKYERDKQARISSFEKFGASTAASLSEGNSRYRSNSAHRSNAEYSQNYSEN
~7 | Gcn5 (endogenous) (enzyme, S. cerevisiae (endogenous in yeast), UniProt Q03330 1-439, looked up, Gcn5, histone acetyltransferase subunit of the SAGA HAT module, S. cerevisiae; source: endogenous, S. cerevisiae lysate / whole cell extract) MVTKHQIEEDHLDGATTDPEVKRVKLENNVEEIQPEQAETNKQEGTDKENKGKFEKETERIGGSEVVTDVEKGIVKFEFDGVEYTFKERPSVVEENEGKIEFRVVNNDNTKENMMVLTGLKNIFQKQLPKMPKEYIARLVYDRSHLSMAVIRKPLTVVGGITYRPFDKREFAEIVFCAISSTEQVRGYGAHLMNHLKDYVRNTSNIKYFLTYADNYAIGYFKKQGFTKEITLDKSIWMGYIKDYEGGTLMQCSMLPRIRYLDAGKILLLQEAALRRKIRTISKSHIVRPGLEQFKDLNNIKPIDPMTIPGLKEAGWTPEMDALAQRPKRGPHDAAIQNILTELQNHAAAWPFLQPVNKEEVPDYYDFIKEPMDLSTMEIKLESNKYQKMEDFIYDARLVFNNCRMYNGENTSYYKYANRLEKFFNNKVKEIPEYSHLID

— PMC10226619, “The SAGA HAT module is tethered by its SWIRM domain and modulates activity of the SAGA DUB module” (Biochimica et biophysica acta. Gene regulatory mechanisms, 2023)
